Publication PMC8613972

Tests used:
Naja siamensis venom = test: biolayer interferometry (wavelength shift, AUC of association curve); conditions: 120-s association phase; n=3; parent: est. 23; read off a plot
Naja mossambica venom = test: as above; conditions: 120-s association phase; n=3; parent: est. 29; read off a plot

Row | Substance | response (Naja siamensis venom) | response (Naja mossambica venom)
1 | Homininae α-1 nAChR orthosteric site (loop C) mimotope, native S187W | 16 AUC | 20 AUC
2 | Homininae α-1 nAChR orthosteric site (loop C) mimotope, native S187W; S191A | 28 AUC | 38 AUC
3 | Homininae α-1 nAChR orthosteric site (loop C) mimotope, native S191A | 28 AUC | 35 AUC
4 | Homininae α-1 nAChR orthosteric site (loop C) mimotope, native T189F | 32 AUC | 46 AUC
5 | Homininae α-1 nAChR orthosteric site (loop C) mimotope, native S187W; T189F; S191A | 53 AUC | 76 AUC
6 | Homininae α-1 nAChR orthosteric site (loop C) mimotope, native S187W; T189F | 50 AUC | 88 AUC
7 | Homininae α-1 nAChR orthosteric site (loop C) mimotope, native T189F; S191A | 31 AUC | 47 AUC
